{
  "source": "paper PMC11677424",
  "about": "“Early-Stage IM Treatment with the Host-Derived Immunostimulant CPDI-02 Increases Curative Protection of Healthy Outbred Mice Against Subcutaneous Infection with Community-Acquired Methicillin-Resistant Staphylococcus aureus USA300” (Pharmaceutics, 2024)",
  "origin": "cited, not measured here",
  "molecules": {"B1": {"name": "hC5a: human Complement Peptide C5a, the parent molecule of CPDI-02 (protein, UniProt P01031 678-751, looked up)", "C5a anaphylatoxin": "TLQKKIEEIAAKYKHSVVKKCCYDGACVNNDETCEQRAARISLGPRCIKAFTECCVVASQLRANISHKDMQLGR", "modifications": "C5a anaphylatoxin"}},
  "key": {"[1]": {"system": "primary human neutrophils (NPs)", "details": "cited from earlier work", "text": "(§1) Complement Peptide-Derived Immunostimulant-02 (CPDI-02) (formerly EP67) is a novel, second-generation host-derived decapeptide agonist of […] (C5) Receptor 1 (C5aR1/C5a1R/CD88), which is based on the C-terminal pharmacophore of human Complement Peptide C5a (hC5a)."}, "[2]": {"system": "primary human mononuclear phagocytes (MPs)", "details": "primary human MPs; cited from earlier work", "text": "as §1"}},
  "data": [
    {"molecule": "B1", "values": [
      {"measurement": "EC50", "setting": "[1]", "value": "~7", "unit": "nM"},
      {"measurement": "EC50", "setting": "[2]", "value": "~7", "unit": "nM"}
    ]}
  ]
}
